Results as given in publication PMC11933058 (Frontiers in Immunology, 2025).

B1: MG1131, human IgG1 format (antibody, V domains shown)
VH: EVQLVQSGAEVKKPGASVKVSCKASGYTFTSYYMHWVRQAPGQGLEWMGIINPSGGSTSYAQKFQGRVTMTRDTSTSTVYMELSSLRSEDTAVYYCASRSGSGWFGALDYWGQGTLVTVSS
VL: not shown
notes: VH of MG1131; constant domains of unmodified human IgG1 heavy chain, from the plasmid pTrioz-hIgG1 (InvivoGen); VL of MG1131; constant domain of the light chain as encoded by pTrioz-hIgG1; IgG1; VH and VL by gene synthesis; also called 7VYT; source: HEK293, transiently transfected, supernatant (concentrated)
B2: M6903, human IgG1 format (antibody, V domains shown)
VH: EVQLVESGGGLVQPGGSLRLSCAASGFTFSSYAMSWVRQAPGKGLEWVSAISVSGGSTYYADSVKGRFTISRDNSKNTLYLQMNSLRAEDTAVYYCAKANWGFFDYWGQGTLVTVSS
VL: QSALTQPRSVSGSPGQSVTISCTGTSSDVGGYNYVSWYQQHPGKAPKLMIYDVSKRPSGVPDRFSGSKSGNTASLTISGLQAEDEADYYCSSYADSVVFGGGTKVTVL
notes: VH of M6903; constant domains of unmodified human IgG1 heavy chain, from the plasmid pTrioz-hIgG1 (InvivoGen); VL of M6903; constant domain of the light chain as encoded by pTrioz-hIgG1; IgG1; VH and VL by gene synthesis; also called 6TXZ; source: HEK293, transiently transfected, supernatant (concentrated); also a large batch produced and purified by SinoBiological
B3: CC-95251, human IgG1 format (antibody, V domains shown)
VH: QVQLVQSGAEVKKPGASVKVSCKASGYTFRGYGISWVRQAPGQGLEWMGWISAYGGETNYAQKLQGRVTMTTDTSTSTAYMELRSLRSDDTAVYYCAREAGSSWYDFDLWGRGTLVTVSS
VL: DIQMTQSPSSVSASVGDRVTITCRASQGISSWLAWYQQKPGKAPKLLIYAASNLQSGVPSRFSGSGSGTDFTLTISSLQPEDFATYYCQQGASFPITFGGGTKVEIK
notes: constant domains of unmodified human IgG1 heavy chain, from the plasmid pTrioz-hIgG1 (InvivoGen); constant domain of the light chain as encoded by pTrioz-hIgG1; VH and VL by gene synthesis; also called 7ST5; source: HEK293, transiently transfected, supernatant
B4: Tiragolumab, human IgG1 format (antibody, V domains shown)
VH: EVQLQQSGPGLVKPSQTLSLTCAISGDSVSSNSAAWNWIRQSPSRGLEWLGKTYYRFKWYSDYAVSVKGRITINPDTSKNQFSLQLNSVTPEDTAVFYCTRESTTYDLLAGPFDYWGQGTLVTVSS
VL: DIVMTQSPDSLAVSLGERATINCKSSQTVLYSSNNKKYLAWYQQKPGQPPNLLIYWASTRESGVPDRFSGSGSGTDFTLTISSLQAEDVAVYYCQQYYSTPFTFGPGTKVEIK
notes: VH of Tiragolumab; constant domains of unmodified human IgG1 heavy chain, from the plasmid pTrioz-hIgG1 (InvivoGen); VL of Tiragolumab; constant domain of the light chain as encoded by pTrioz-hIgG1; IgG1; VH and VL by gene synthesis; also called 8JEO; source: HEK293, transiently transfected, supernatant (concentrated)
B5: Tim3.18, human IgG1 format (antibody, V domains shown)
VH: QLQLQESGPGLVKPSETLSLTCTVSGGSISSRSYYWGWIRQPPGKGLEWIGSIYYSGFTYYQPSLKSRVTISVDTSKNQFSLKLSSVTAADTAVYYCATGGPYGDYAHWFEPWGQGTLVTVSS
VL: not shown
notes: VH of Tim3.18; constant domains of unmodified human IgG1 heavy chain, from the plasmid pTrioz-hIgG1 (InvivoGen); VL of Tim3.18; constant domain of the light chain as encoded by pTrioz-hIgG1; IgG1; VH and VL by gene synthesis; also called 7KQL; source: HEK293, transiently transfected, supernatant (concentrated); also a large batch produced and purified by SinoBiological

What was measured:
[1] = biological target: T1, TIT-H52H5 Human TIGIT Protein, His Tag, active dimer (ACROBiosystems) (Homo sapiens, UniProt Q495A1); assay: BLI; Octet RED96, antibody loaded from supernatant on anti-human Fc (AHC) biosensors, recombinant TIM3 or TIGIT in solution; PBS, 30°C, 1000 rpm; association 300 sec, dissociation 300 sec; global 1:1 fit; settings: one partner purified
T1 construct: TIGIT, human, recombinant extracellular domain; the methods describe the His-tagged protein; For BLI only 'recombinant TIGIT' is said; also called VSIG9; T-cell immunoreceptor with Ig and ITIM domains; source: bought: ACROBiosystems
T1 sequence (Q495A1 22-141): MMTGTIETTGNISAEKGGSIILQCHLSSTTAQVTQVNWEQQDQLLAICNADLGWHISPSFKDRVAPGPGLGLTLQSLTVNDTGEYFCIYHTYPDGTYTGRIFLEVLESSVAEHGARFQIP

[2] = biological target: T1, TIT-H52H5 Human TIGIT Protein, His Tag, …; assay: AlphaScreen or HTRF; dose-response of antibodies (human IgG1 in concentrated, dosed HEK293 supernatant) on recombinant TIM3 or TIGIT at 0.6 ng/µl; 1 h incubation, then donor and acceptor sensors 1 h; EC50 from a fit in GraphPad Prism; settings: one partner purified
[3] = biological target: T2, recombinant human TIM3 extracellular domain, 6-His C-ter-tagged (ACROBiosystems) (Homo sapiens, UniProt Q8TDQ0); assay: BLI; Octet RED96, antibody loaded from supernatant on anti-human Fc (AHC) biosensors, recombinant TIM3 or TIGIT in solution; PBS, 30°C, 1000 rpm; association 300 sec, dissociation 300 sec; global 1:1 fit; settings: one partner purified
T2 construct: TIM3 (HAVCR2), human, recombinant extracellular domain; the methods describe the His-tagged protein; For BLI only 'recombinant TIM3' is said; also called HAVCR-2; HAVCR2; source: bought: ACROBiosystems; not shown: His6, C-terminal, kept

[4] = biological target: T2, recombinant human TIM3 extracellular …; assay: AlphaScreen or HTRF; dose-response of antibodies (human IgG1 in concentrated, dosed HEK293 supernatant) on recombinant TIM3 or TIGIT at 0.6 ng/µl; 1 h incubation, then donor and acceptor sensors 1 h; EC50 from a fit in GraphPad Prism; settings: one partner purified
[5] = biological target: T3, SIRPα with C-terminal Flag tag, overexpressed in HEK293 cells (UniProt P78324); assay: flow cytometry on cells; HEK293 transiently transfected with the Flag-tagged target, fixed and permeabilized, incubated with raw antibody supernatants 1 h at room temperature; APC anti-human IgG and PE anti-Flag; % APC+PE+ cells; settings: partners not purified
T3 construct: SIRPα, transmembrane target, synthetic gene; source: HEK293, transiently transfected (pcDNA3.1), cells fixed and permeabilized; not shown: Flag, C-terminal, kept

| Binder | Kd [1] | koff [1] | kon [1] | EC50 [2] | Kd [3] | koff [3] | kon [3] | EC50 [4] | binding result [5] |
| --- | --- | --- | --- | --- | --- | --- | --- | --- | --- |
| B1 | 0.189 nM | 7.43e-05 s⁻¹ | 393000 M⁻¹ s⁻¹ | 0.489 nM | – | – | – | – | – |
| B2 | – | – | – | – | 0.2 nM | 3.06e-05 s⁻¹ | 153000 M⁻¹ s⁻¹ | 0.193 nM | – |
| B3 | – | – | – | – | – | – | – | – | binds |
| B4 | 0.681 nM | 0.000279 s⁻¹ | 410000 M⁻¹ s⁻¹ | 3.15 nM | – | – | – | – | – |
| B5 | – | – | – | – | 1.01 nM | 0.000219 s⁻¹ | 216000 M⁻¹ s⁻¹ | 0.15 nM | – |
